Results published in patent publication US20190016825A1 (JIANGSU HENGRUI MEDICINE, published 2019).

B1: h001-10 (antibody, human IgG1, V domains shown)
VH: QVQLVQSGAEVKKPGASVKVSCKASGYTFTDYWMHWVRQAPGQGLEWMGYINPSSGFTKYHQNFKDRVTMTRDTSISTAYMELSRLTSDDTAVYYCARQYDYDEDWYFDVWGQGTTVTVSS
VL: DIQMTQSPSSLSASVGDRVTITCKSSQSLLNSRTRKNFLAWYQQKPGKAPKLLIYWASTRESGVPDRFSGSGSGTDFTLTISSLQPEDFATYYCKQSFNLFTFGQGTKLEIK
notes: Variable regions only; also called h001_VH.1B + h001_VL.1A
B2: Ch-001 (antibody, V domains shown)
VH: QVHLQQSGAELAKPGASVKLSCKASGYTFNDYWMHWVKERPGQGLEWIGYINPSSGFTKYHQNFKDKATLTADKSSSTAYMQLSSLTYDDSAVYYCARQYDYDEDWYFDVWGTGTTVTVSS
VL: DIVMSQSPSSLAVSAGEKVTMSCKSSQSLLNSRTRKNFLAWYQQKPGQSPKLLIYWASTRESGVPDRFTGRGSGTDFTLTISSVQAEDLAVYYCKQSFNLFTFGSGTKLEIK
notes: also called chimeric antibody
B3: h001-4-WT (antibody)
heavy: not shown
light: DIVMSQSPSSLSASVGDRVTITCKSSQSLLNSRTRKNFLAWYQQKPGKSPKLLIYWASTRESGVPDRFSGSGSGTDFTLTISSLQPEDFATYYCKQSFNLFTFGQGTKLEIKRTVAAPSVFIFPPSDEQLKSGTASVVCLLNNFYPREAKVQWKVDNALQSGNSQESVTEQDSKDSTYSLSSTLTLSKADYEKHKVYACEVTHQGLSSPVTKSFNRGEC
notes: both labels are treated as one molecule; also called H001-4 IgG1 format; h001_VH.1 + h001_VL.1C
B4: h001-4-YTE (antibody, human IgG1, kappa)
heavy: QVQLVQSGAEVKKPGASVKVSCKASGYTFTDYWMHWVRQAPGQGLEWMGYINPSSGFTKYHQNFKDRVTMTRDTSISTAYMELSRLRSDDTAVYYCARQYDYDEDWYFDVWGQGTTVTVSSASTKGPSVFPLAPSSKSTSGGTAALGCLVKDYFPEPVTVSWNSGALTSGVHTFPAVLQSSGLYSLSSVVTVPSSSLGTQTYICNVNHKPSNTKVDKKVEPKSCDKTHTCPPCPAPELLGGPSVFLFPPKPKDTLYITREPEVTCVVVDVSHEDPEVKFNWYVDGVEVHNAKTKPREEQYNSTYRVVSVLTVLHQDWLNGKEYKCKVSNKALPAPIEKTISKAKGQPREPQVYTLPPSRDELTKNQVSLTCLVKGFYPSDIAVEWESNGQPENNYKTTPPVLDSDGSFFLYSKLTVDKSRWQQGNVFSCSVMHEALHNHYTQKSLSLSPGK
light: B3 light
notes: human kappa light chain; also called h001-4-IgG1-YTE

How the values were obtained:
[1] = target: T1, PCSK9-D374Y-BP15-His6 (human, UniProt Q8NBP7 31-692, biotin on the BP15 biotin receiving peptide); experiment: ELISA, bio-PCSK9-Y captured on streptavidin plate
T1 construct: also called PCSK9-Y; mutant PCSK9
Description: The binding ability of anti-PCSK9 antibodies of the present invention to PCSK9-Y was detected by measuring the amount of antibodies binding to PCSK9-Y (mutant PCSK9, SEQ ID NO: 6) fixed on the ELISA plate.
Streptavidin (sigma, CAT#54762) was diluted to 2 μg/ml with PBS and coated into 96-well ELISA plate at 4° C. overnight. The plate was washed and then blocked with Tris buffer (including 0.9 mM CaCl₂, 0.05% Tween 20 and 5% skim milk) at 37° C. for 2 hours. Then the plate was washed again and 100 μl/well of the biotin-labeled PCSK9-Y, produced in-house, (bio-PCSK9-Y, diluted with Tris buffer containing 0.9 mM CaCl₂, 0.05% Tween 20 and 1% skim milk) was added and incubated at 37° C. for 1 hour. After the wash step, different concentrations of diluted PCSK9 antibody samples were added to the plate and incubated at 37° C. for 1 hour. Then the plate was washed again and HRP-goat-anti-human (H+L) antibody (Jackson ImmunoResearch, CAT#109-035-088) was added and incubated at 37° C. for 1 hour. Then the plate was washed again and tetramethylbenzidine solution was added for development. Finally, the stop solution was added and the OD450 value was measured on the Microplate reader, and then EC50 was calculated.
The results of ELISA test for the binding ability of chimeric antibodies and back-mutated antibodies of the present invention to mutant PCSK9 are shown in table 6.

[2] = target: T2, PCSK9-BP15-His6 (human, UniProt Q8NBP7 31-692, biotin on the BP15 biotin receiving peptide); experiment: blocking ELISA, LDLR-FC (SEQ ID NO: 8) coated, bio-WT-PCSK9 plus antibody
T2 construct: It holds a signal peptide (underlined in print); also called WT PCSK9; bio-WT-PCSK9
Description: The blocking abilities of PCSK9 antibodies of the present invention to the binding of LDLR-FC (produced in-house, sequence is shown in SEQ ID NO: 8) to PCSK9 (SEQ ID NO: 5) were detected by measuring the amount of PCSK9 binding to LDLR in the presence of the antibodies.
LDLR-FC was diluted to 5 μg/ml with phosphate buffer and coated in the 96-well ELISA plate, then incubated at 4° C. overnight. The plate was washed and then blocked with Tris buffer (including 0.9 mM CaCl₂, 0.05% Tween 20 and 5% skim milk) at 37° C. for 2 hours. Then the plate was washed again and 100 μl/well of the mixture of biotin-labeled PCSK9 (bio-WT-PCSK9, diluted to the final concentration of 2 μg/ml with Tris buffer containing 0.9 mM CaCl₂, 0.05% Tween 20 and 1% skim milk) and antibody samples (diluted with Tris buffer containing 0.9 mM CaCl₂, 0.05% Tween 20 and 1% skim milk) were added and incubated at 37° C. for 1 hour. Then the plate was washed again and horseradish peroxidase-streptavidin (Sigma, CAT#52438) was added and incubated at 37° C. for 1 hour. Then the plate was washed and tetramethylbenzidine solution was added for development. Finally, the stop solution was added and the OD450 was measured on the Microplate reader, then IC50 was calculated.

[3] = target: T2, PCSK9-BP15-His6; experiment: ELISA, bio-WT-PCSK9 captured on streptavidin plate
Description: The binding ability of anti-PCSK9 antibodies of the present invention to PCSK9 was detected by measuring the amount of antibodies binding to wild-type PCSK9 protein (WT PCSK9, SEQ ID NO: 5) fixed on the ELISA plate.
Streptavidin (sigma, CAT#S4762) was diluted to 2 μg/ml with PBS and coated into 96-well ELISA plate, at 4° C. overnight. The plate was washed and then blocked with Tris buffer (including 0.9 mM CaCl2, 0.05% Tween 20 and 5% skim milk) at 37° C. for 2 hours. Then the plate was washed again and 100 μl/well of the biotin-labeled PCSK9, produced in-house, (bio-WT-PCSK9, diluted with Tris buffer containing 0.9 mM CaCl2, 0.05% Tween 20 and 1% skim milk), was added and incubated at 37° C. for 1 hour. After the wash step, different concentrations of diluted PCSK9 antibody samples was added to the plate and incubated at 37° C. for 1 hour. Then the plate was washed again and HRP-goat-anti-human (H+L) antibody (Jackson ImmunoResearch, CAT#109-035-088) was added and incubated at 37° C. for 1 hour. Then the plate was washed again and tetramethylbenzidine solution was added for development. Finally, the stop solution was added and the OD450 value was measured on the Microplate reader, and then EC50 was calculated.

[4] = target: T1, PCSK9-D374Y-BP15-His6; experiment: blocking ELISA, LDLR-FC (SEQ ID NO: 8) coated, bio-PCSK9-Y plus antibody
Description: The blocking abilities of anti-PCSK9 antibodies to the binding of LDLR-FC (SEQ ID NO: 8) to PCSK9-Y (mutant PCSK9, SEQ ID NO: 6) were detected by measuring the amount of PCSK9-Y binding to LDLR in the presence of the antibodies.
LDLR-FC was diluted to 2 μg/ml with phosphate buffer and coated in the 96-well ELISA plate (Costar, CAT#3590), then incubated at 4° C. overnight. The plate was washed and then blocked with Tris buffer (including 0.9 mM CaCl₂, 0.05% Tween 20 and 5% skim milk) at 37° C. for 2 hours. Then the plate was washed again and 100 μl/well of the mixture of biotin-labeled PCSK9-Y (bio-PCSK9-Y, diluted to final concentration of […] with Tris buffer containing 0.9 mM CaCl₂, 0.05% Tween 20 and 1% skim milk) and antibody samples (diluted with Tris buffer containing 0.9 mM CaCl₂, 0.05% Tween 20 and 1% skim milk) were added and incubated at 37° C. for 1 hour. Then the plate was washed again and horseradish peroxidase-streptavidin (sigma, CAT#S2438) was added and incubated at 37° C. for 1 hour. Then the plate was washed and tetramethylbenzidine solution was added for development. Finally, the stop solution was added and the OD450 value was measured on the Microplate reader, then IC50 was calculated.
The results of blocking test for the blocking effects of the chimeric antibodies and back-mutated antibodies of the present invention on the binding of LDLR-FC/PCSK9-Y are shown in table 7.

[5] = target: T3, PCSK9-His6 (human, UniProt Q8NBP7 31-692, limits assumed); experiment: BIAcore, antibody captured by human Fab capture molecule on CM5 chip, PCSK9-His6 in flow
T3 construct: also called human PCSK9 with His tag; huPCSK9
Excerpt: According to the method described in the Human Fab Capture Kit (Cat. #28-9583-25, GE), the human Fab capture molecule was covalently linked to the CM5 biochip (Cat. # BR-1000-12, GE) so that the antibodies to be tested were affinity captured. Then, human PCSK9 antigen (human PCSK9 with His tag: PCSK9-His6, SEQ ID NO: 1) flowed through the surface of the biochip, and the reaction signal was detected in real time using a Biacore instrument to obtain the association and dissociation curves. Finally, the affinity values were obtained by fitting and are shown at table 9 below. After each cycle of dissociation was finished in the experiment, the biochip was washed and regenerated with regeneration solution in Human Fab Capture kit (GE).

| Binder | EC50 [1] | IC50 [2] | EC50 [3] | IC50 [4] | Kd [5] |
| --- | --- | --- | --- | --- | --- |
| B1 | 0.0209 µg/mL | 0.829 µg/mL | 0.0176 µg/mL | 0.514 µg/mL | – |
| B2 | 0.0132 µg/mL | 0.836 µg/mL | 0.0084 µg/mL | 0.392 µg/mL | – |
| B3 | 0.0179 µg/mL | 0.76 µg/mL | 0.012 µg/mL | 0.53 µg/mL | 288 pM |
| B4 | – | – | – | – | 491 pM |
